Reference: PMC5627591
Read-outs that look alike come from different tables or passages of the source.

Tests used:
Assay in all cases: BLI
[1] = target: human IgG1 wild-type (WT) Fc variant of the pH-dependent mAbs (human)
[2] = target: human IgG1 Fc-YEY variant (M252Y/N286E/N434Y) of the pH-dependent mAbs (human)
[3] = target: human IgG1 Fc-YTE variant (M252Y/S254T/T256E) of the pH-dependent mAbs (human)
[4] = target: human IgG1 Fc-YPY variant (M252Y/V308P/N434Y) of the pH-dependent mAbs (human)
[5] = target: human IgG1 Fc-YEY variant (M252Y/N286E/N434Y) of the pH-dependent mAbs (human); remark: listed apart in the source
[6] = target: human IgG1 Fc-YTE variant (M252Y/S254T/T256E) of the pH-dependent mAbs (human); remark: listed apart in the source
[7] = target: human IgG1 Fc-YPY variant (M252Y/V308P/N434Y) of the pH-dependent mAbs (human); remark: listed apart in the source
[8] = target: human IgG1 wild-type (WT) Fc variant of the pH-dependent mAbs (human); remark: listed apart in the source

Kd [1] [nM] | Kd [2] [nM] | Kd [3] [nM] | Kd [4] [nM] | Kd [5] [nM] | Kd [6] [nM] | Kd [7] [nM] | Kd [8] [nM] | Substance
853 | 4.3 | 76 | 2.2 | 66 | 1110 | 28 | – | cyno FcRn (cynomolgus monkey neonatal Fc receptor) (from UniProt Q8SPV9 24-365)
185 | 3.1 | 30 | 1.6 | 22 | 760 | 14 | > 10000 | human FcRn (human neonatal Fc receptor) (from UniProt P55899 24-365)
